The record followed here is paper PMC7595626.

The assay has as its target His6-tagged Casp8p41 protein. Put plainly: SPR; Casp8p41 immobilised on a CM5 chip (6000-7000 RU); BCL2 or phospho-S70-BCL2 flowed over; 25°C; 150 mM NaCl, 0.05 mM EDTA, 0.005% Polysorbate 20, 10 mM Hepes pH 7.4; steady state affinity fit, 1:1 model; Biacore T200.

phospho-S70-BCL2 (domain or fragment) yielded a Kd of 40 nM.

Take BCL2ΔTM-His6 (domain or fragment): the Kd is 260 nM.
